Measured values: doi:10.1101/2023.06.11.543863
Where two headings read alike, the source gives them in different places.

What was measured:
Experiment in all cases: FRET or BRET
[1] = target: E. coli ribosomal pre-translocation complex lacking an A-site tRNA (PRE^−A complex) (E. coli) (UniProt P0A7L0)
[2] = target: E. coli ribosomal pre-translocation complex lacking an A-site tRNA (PRE^−A complex) (E. coli) (UniProt P0A7L0); remark: listed apart in the source
[3] = target: E. coli ribosomal pre-translocation complex lacking an A-site tRNA (PRE^−A complex) (E. coli) (UniProt P0A7L0); remark: listed apart in the source

Chain of UniProt P0A7L0 (P0A7L0 whole entry, looked up, one chain of several): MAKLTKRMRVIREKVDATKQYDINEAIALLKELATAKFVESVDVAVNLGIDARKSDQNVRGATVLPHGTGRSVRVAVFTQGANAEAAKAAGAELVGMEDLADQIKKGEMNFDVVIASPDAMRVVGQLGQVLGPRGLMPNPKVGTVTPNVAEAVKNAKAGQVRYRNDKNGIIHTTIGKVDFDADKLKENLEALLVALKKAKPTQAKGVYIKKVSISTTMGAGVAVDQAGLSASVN

Kd [1] [µM] | Kd [2] [µM] | Kd [3] [µM] | Substance
< 6 | 1 | – | EQ2-Uup (E. coli Uup with both catalytic glutamates changed to glutamine) (from UniProt P43672 1-635) (enzyme)
< 6 | – | < 1 | EQ2-YheS (E. coli YheS with both catalytic glutamates changed to glutamine) (from UniProt P63389 1-637) (enzyme)
< 6 | – | – | EQ2-EttA (E. coli EttA with both catalytic glutamates changed to glutamine) (from UniProt P0A9W3 1-555) (enzyme)
< 6 | – | – | EQ2-YbiT (E. coli YbiT with both catalytic glutamates changed to glutamine) (from UniProt P0A9U3 1-530) (enzyme)
